Assay results from the nanobody polyreactivity screen of Harvey et al. (2022).

Experiment: yeast display, Sf9 membrane polyspecificity reagent, FACS + sequencing; frameworks hold sequencing errors
Summary of the method: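 Using colony PCR, genes from sorted yeast display clones were amplified, then sequenced on MiSeq at 2 × 250 and filtered by CDR length. The clones had been stained with 10% biotinylated, detergent-solubilized Sf9 membrane reagent for 1 hour at 4 °C and sorted by FACS into low and high (top ~1%) gates on anti-HA and streptavidin fluorescence. Polyreactivity labels come from the gate of origin.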

Sequence | polyreactivity (PSR sort gate)
QVQLVESGGGLVQAGGSLRLSCAASGRTFSSNAMGWYRQAPGKERELVASISFRGGRTYYADSVKGRFTISRDNAKNTVYLQMYSLKPEDTAVYYCVSGTKRTGYGYWGQGTQVTVSS | high polyreactivity
QVQLVESGGGLVQAGGSLRLSCAASGRTFSSYAKGWYRQAPGKERELVAAITSGGSTYYADSVKGRFTISRDNAKNTVYLQMNSLKPDDTAVYYCAAEQHGYYWHSWNRYIFYYWGQGTQVTVSS | high polyreactivity
QVQLVESGGGLVQAGGSLRLSCAASGRTFSSYAMGWYRQAPGKEREFVAAISRSGASTRYADSVKGRFTISRDNAKNTVYLQMNSLKPEDTAVYYCAAVWPDVRGYDYWGQGTQVTVSS | high polyreactivity
QVQLVESGGGLVQAGGSLRLSCAASGRTFSSYAMGWYRQAPGKERELVAAIDSGGNTYADSVKGRFTISRDNAKNTVYLQMNSLKPEDTAVYYCAVDGGEFSSYGYWGQGTQVTVSS | low polyreactivity
QVQLVESGGGLVQAGGSLRLSCAASGRTFSSYAMGWYRQAPGKERELVAAINWSGASTYYADSVKGRFTISRDNAKNTVYLQMNSLKPEDTAVYYCAKSLYVGKYWQIRSSVDYWGQGTQVTVSS | low polyreactivity
QVQLVESGGGLVQAGGSLRLSCAASGRTFSTNAMGWYRQAPGKERELVAAITASGGSTYYADSVKGRFTISRDNAKNTVYLQMNSLKPEDTAVYYCAKRYRAYHYGWWYDYWGQGTQVTVSS | high polyreactivity
QVQLVESGGGLVQAGGSLRLSCAASGRTFSTYAMGWYRQAPGKERELVAAISTSGSRTYYADSVKGRFTISRDNAKNTVYFQMNSLKPEDTAVYYCAATPLYYRYYVWQYDYWGQGTQVTVSS | high polyreactivity
QVQLVESGGGLVQAGGSLRLSCAASGRTFSTYAMGWYRQAPGKERELVAAITTSGGNTYYADSVKGRFTISRDNAKNTVYLQMNSLKPEDTAVYYCNAKQQPYGGTDYDYWGQGTQVTVSS | low polyreactivity
QVQLVESGGGLVQAGGSLRLSCAASGRTFSVNAMGWYRPAPGKERELVAAISWDGGSTYYADSVKGRFTISRDNAKNTVYLQMNSLKPEDTAVYYCNKDLYYAYDYWGQGTQVTVSS | low polyreactivity
QVQLVESGGGLVQAGGSLRLSCAASGRTFSVNVMGWYRQAPGKERELVAAISWSGGNTYYADSVKGRFTISRDNAKNTVYLQMNSLKPEDTAVYYCNTDFADSNYDSSYGYWGQGTQVTVSS | low polyreactivity
QVQLVESGGGLVQAGGSLRLSCAASGRTFSVYAMGWYRQAPGKERELVAAISGRGGRTYYADSVKGRFTISRDNAKNTVYLQMNSLKPEDTAVYYCTADVGVYHDDYWGQGTQVTVSS | high polyreactivity
QVQLVESGGGLVQAGGSLRLSCAASGRTFSVYAMGWYRQAPGKESELVAGITGNGGSTYYADSVKGRFTISRDNAKNTVYLQMNSLKPEDTAVYYCATAYWDIITRGEYGYWGQGTQVTVSS | low polyreactivity
QVQLVESGGGLVQAGGSLRLSCAASGRTFSVYVMGWYRQAPGKERELVAAISSSGGRTYYADSVKGRFTISRDNAKNTVYLQMNSLKPEDTAVYYCAAETIVFYVEYNYWGQGTQVTVSS | low polyreactivity
QVQLVESGGGLVQAGGSLRLSCAASGRTFSWNAMGWYRQAPGKERELVAAISNSGGSTYYADSVKGRFTISRDNAKNTVYLQMNSLKPEDTAVYYCAVYRYYGFSLWYDYWGQGTQVTVSS | low polyreactivity
QVQLVESGGGLVQAGGSLRLSCAASGRTFSWYAMGWYRQAPGKERELVAAISSSGGSTYYADSVKGRFTISRDNAKNTVYLQMNSLKPEDTAVYYCAVRYYSSLSQRYYSWGQGTQVTVSS | high polyreactivity
QVQLVESGGGLVQAGGSLRLSCAASGRTFSWYVMGLYRQAPGKERELVASISGSGGSTYYADSVKGRFTISRDNAKNTVYLQMNSLKPEDTAVYYCARDYFFRSRSDYWGQGTQVTVSS | high polyreactivity

Sequence | polyreactivity (PSR sort gate)
QVQLVESGGGLVQAGGSLRLSCAASGRTFSWYVMGWSRQAPGKERALVAAISWNGGRTYYADSVKGRFTISRDNAKNTVYLQMNRLKPEDTAVYYCATGPDPKYDYWGQGTQVTVSS | high polyreactivity
QVQLVESGGGLVQAGGSLRLSCAASGRTFSYNAIGWYRQAPGKERTNYADSVKGRFTISRDNAKNTVYLQMNSLKPEDTAVYYCAVEPYLSYPPTSIDNDYDYWGQGTQVTVSS | low polyreactivity
QVQLVESGGGLVQAGGSLRLSCAASGRTFSYNTMGWYRQAPGKERELVAAIDSDGSTNYADSVKGRFTISRDNAKNTVYLQMNSLKPEDTAVYYCAADRFQCGFWWLEYWGQGTQVTVSS | high polyreactivity
QVQLVESGGGLVQAGGSLRLSCAASGRTFSYYAMGWYRPAPGKEREFVAAISSTGTSTYYADSVKGRFTISRDNAKNTVYLQMNSLKPEDTAVYYCNARVATYRLHSKFYYWGQGTQVTVSS | high polyreactivity
QVQLVESGGGLVQAGGSLRLSCAASGRTFSYYAMGWYRQAPGKERELGAANSGGGRTNYADSVKGRFTISRDNAKNTVYLQMNSLKPEDTAVYYCAAGASRKYQYYSRSYDYWGQGTQVTVSS | high polyreactivity
QVQLVESGGGLVQAGGSLRLSCAASGRTFSYYAMGWYRQAPGKERELVARITYRGGRTYYADSVKGRFTISRDNAKNTVYLQMNSLKPEDTAVYYCATTSWRYGYDYWGQGSQVTVSS | high polyreactivity
QVQLVESGGGLVQAGGSLRLSCAASGRTFSYYTLGWYRQAPGKERELVARISNRGTNTYYADSVKGRFTISRDNAKNTVYLQMNSLKPEDTAVYYCAAYTPPVYWLTRAIRGYYWGQGTQVTVSS | low polyreactivity
QVQLVESGGGLVQAGGSLRLSCAASGRTFSYYTMGWYRQAPGKERQLVARISNRGTNTYYADSVKGRFTISRDNAKNTVYLQMNSLKPEDTAVYYCAKYYYTSIVGYDSWGQGTQVTVSS | low polyreactivity
QVQLVESGGGLVQAGGSLRLSCAASGRTFTFYAMGWYRQAPGKERELVATISYSGGRTYYADSVKGRFTISRDNAKNTVYLQMNSLKPEDTAVYYCATSVSGPWWKLYYWGQGTQVTVSS | low polyreactivity
QVQLVESGGGLVQAGGSLRLSCAASGRTFTGNAMGWYRQAPGKERELVAAISTSGTRTSYADSVKGRFTISRDNAKNTVYLQMNSLKPEDTAVYYCAALRKSLYRTYTYDYWGQGTQVTVSS | high polyreactivity
QVQLVESGGGLVQAGGSLRLSCAASGRTFTGNAMGWYRQAPGKVRELVADINLSGGDTYYADSVKGRFTISRDNAKNTVYLQMNSLKPEDTAVYYCAADIVYSSDYGPGDYWGQGTQVTVSS | high polyreactivity
QVQLVESGGGLVQAGGSLRLSCAASGRTFTGYAMGWYRQAPGKERELVAAITSNGARTYYADSVKGRFTISRDNAKNTVYLQMNSLKPEDTAVYYCNRVRVYTHTAWGDDYWGQGTQVTVSS | low polyreactivity
QVQLVESGGGLVQAGGSLRLSCAASGRTFTGYAMGWYRQAPGKERELVAGISRRGGSTNYADSVKGRFTISRDNSKNTVYLQMNSLKQEDPAVYYCKKRYSLWDEDYWGQGTQVTVSS | high polyreactivity
QVQLVESGGGLVQAGGSLRLSCAASGRTFTHYAMGWYRQAPGKERELVAAISRSGGTTYYADSVKGRFTISRDNAKNTVYLQMNSLKPEDTAVYYCAARWWYRYNYDYWGQGTQVTVSS | high polyreactivity
QVQLVESGGGLVQAGGSLRLSCAASGRTFTINAMGWYRQAPGKERELVATISYSGGSTRYADSVKGRFTISRDNAKNTVYLQMNSLQPDDTAVYYCAADAGYYGRWYGHGYGYWGQGTQVTVSS | high polyreactivity
QVQLVESGGGLVQAGGSLRLSCAASGRTFTKYAMGWYRQAPGKERELVAAISNSGGSTFYADSVKGRFTISRDNAKNTVYLQMNSLKPEDTAVYYCAVDLGDTQYVPFDYWGQGTQVTVSS | low polyreactivity
